Measurements: paper doi:10.1101/2023.09.15.557927 (bioRxiv, 2023)
No end group written: not given here. *: point of attachment. FITC = O=C1OC2(c3ccc(O)cc3Oc3cc(O)ccc32)c2ccc(NC(=S)*)cc21

Key:
[1] = molecular target: T1, 6xHis-tagged LC8 (DYNLL2) (human, UniProt Q96FJ2 1-89); assay: SPR
[2] = molecular target: T1, 6xHis-tagged LC8 (DYNLL2); assay: fluorescence polarisation

**Q.** What does the source list for KESCNMETQTS [OFD1 peptide (KESCNMETQTS)]?
**A.** Kd [1]: 12.5 ± 1.3 µM; Kd [2]: 12.8 µM

**Q.** Does {FITC}-TSQEDKATQTL [FITC-labeled BMF peptide (FITC-TSQEDKATQTL)] bind [2]?
**A.** binds
